Results from article PMC8678608.

Target: human VEGF165 protein (human)
Test: ELISA; plates coated with recombinant human PD-L1 or VEGF165 (100 ng/well, carbonate buffer); antibody 1 h at room temperature; detected with HRP goat anti-human Fc, TMB, 450 nm

B1: HB0025 (anti-PD-L1/VEGFR1D2-Ig fusion protein) (bispecific antibody, V domains shown)
VH: QVQLVQSGAEVKKPGASVKVSCKASGYAFTGYTIHWVRQAPGQRLEWMGWFYPGSGTLKYSEKFQGRVTITRDKSLSTAYMELSSLRSEDTAVYYCARHGTGTLMAMDYWGQGTLVTVSS
VL: DVVMTQTPLSLSVTPGQPASISCKSSQSLANSYGNTYLSWYLHKPGQSPQLLIYGISNRFSGVPDRFSGSGSGTDFTLKISRVEAEDVGVYYCLQGTHQPPTFGQGTKLEIK
EC50: 0.48 nM
